According to the domain aggregation screens of Martell et al. (2025):

Assay: soluble fraction after stress (log2 fold change); higher = more stays soluble; pooled small domains, quantitative proteomics
Conditions: stress: 75 degC
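Further: 20 min heating vs room temperature control held 20 min.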

Sequence	soluble fraction (log2)
HMDVQEILGALSPDEKAAIGQLTSGEKHIDQIIAATRLPAARITSALTLLQIKGYVRALPGKRFSLTEKQ	-1.87
HMDVQPTTTKTMFYTVQQGETLFSISRKFGISVEEITKKNPLASSGLTVGMELLLPEKKEINSTIQS	0.0149
HMDVSEITTIKWIIKETKLGINEKILIYVNSKNFTVETLMEGFEIMSKYLVENVSSDKIVYIKN	0.0119
HMDVTDRLARRLQGLRSAQGLSLDALAARSGVSRSNISLIERGQSSPTATVLDKLSAALGVTLAALFEEP	-1.04
HMDWVAYGAELRRRRLLAGWTVAELSRRINLSGMTIHQIEKGRGRLRPSELTLAKLAAALGMPTP	-3.58
HMDYEVPEELEEKFSENPQFKEAFDNLTPGRQHQYIYHISQAKRSQTRINRIEKYYEHILNGKGMQD	0.111
HMDYGTATASAILYLEKIDPENPYLLLAKDTITTNPKMSVNFALKGIIESKKGEKEENLNKALEIMSSL	-0.144
HMDYKSNLQEMVQTTKKSVTYELVKEEGPAHDRTFTMNVIVDGIVLGTGTAKSKKEAEQEAAHQALEKKA	-0.253
HMDYTGIPQSLLDLMKKDNIMPMQIQRAVAERNYYPVDTPISNYDPMFIEAKLVGAWDQVLNVISHLDLP	-1.25
HMDYTPIEVKDLPQAIQDALTKNFSEYTVKSAAYQEDEDGVKIYQVTVVDEEGTEANIFFTEKGE	0.206
HMEADERRNEILDAAETLITEKGYSKTTIIDILNQVGIAKGTFYYYFKSKEEVMDAIIERFI	-2.41
HMEAEGLDFAPMPGEIGKKLWQEVSKEAWAGWLKHQTMLVNENRLSFVDPAARKYLTEQTEAYFFG	0.131
HMEAEMLYQVKVKITNLVIRSGAGAIYPIVKRYASGVLPIYEEKNGYGKIAVGQWISLSPEFVERVD	-3.13
HMEAEPRLLDLPPGTRAGRLDKVLAQLLPEHSRSRLQGWIERGGVLVNGKEASVRQVVGPGDQLTVWEEAA	-0.0507
HMEAEQLEAIRSALQQLSDMNRTVFNLHVVDGYKHEEIAAMLNITTGTSKAHLHRAKKRLRELID	-1.04
HMEAEVIKTASDMADRNGLHNVSLKAIAENLGIRTPSLYNHIGSLDELLREIAHSGMRTMNE	-0.0854
HMEAFAEAVASMLRKLQPEFAIDLVGPRELLVNGRRLDLENLYRMVNHEPVRGQEIVEHYLDQLFAG	-1.17
HMEAGLRMPEQLTAFSALALLQKVRDSGPLTDAQKEQLDADVLRIEASHFGKADREALELEEILKQWLSRV	0.149
HMEAKSSTKALLDVVLGRNGVSTANVAKSLNISVQNASTRLKKLSSEGVIMRSEVSSPTGGIEFIYS	0.109
HMEAKTSNPDYHARLGLTEGEGNDSALGVSVKAAEGGFGLLFGNKVGSDQLVRFANEDQVWLVNRALS	0.165
HMEALNIEQKKVEIINVLLEKGKGKGRLSYKEISDQIDTVELDKDQMDELYETLMTNGIEIV	0.00136
HMEALPSNLRRLRLEAQLTLDRLGALSGVSRAMISKIERGASVPTATMLGKLAAALQVSLSQLL	-1.18
HMEAMITEVKRINYGLISDISKSLDPFKSEGGHIIVDKRTNTFILTDLRANIEKMLWSIEIMD	-0.196
HMEAPNELLVPEGARPARADRVLAAAFPEHSRTALQRAFDAGLVRRANLVLSRDTAVAGGDRIAFSLPAV	0.0788
HMEARYQLREVSLDGLRSGMILNADVLSTDGVLMARKGLEVSGLLRSRLEAFAKMERIEPTFKVLVPIAPP	-2.19
HMEASSTAIQAMIRRLIDDENPRKPLSDAKLADLLKSSGIPVARRTVAKYREAMNISASHERVRI	-0.793

Sequence	soluble fraction (log2)
HMEATEFYLEDLTGQMYNDVVNDEKYAGKIVFEKEEVQSDGEEAIGQILNQRPAGNMNVRIGTTVTLVVNA	0.242
HMEATVGSRVRLARIGLTLTQKQLAQAVGVSANHLAMVERGSKHASEDLLQRIATATHTTYEWLMGTSEHQ	-2.43
HMEAVIENAAIIKQNSGGYAVRATVNGVDLGMKPVERATALLYFSLTDKLEKDRLLSHTLQKTYGDLSA	-0.212
HMEAYLPVTVVSDGKILTGNLEKAGKNEKWLENVLSELKTDVKNTLLLTVDPKDGLIFYPKG	0.408
HMEAYMVPNVKNKTLNEAQQALSNQKLKGLVIDSSYVKGVPDGMVLDQNPAGGARVKEGRTIYLTVTTS	0.237
HMEDADERRALEVLNQLLDLPEREQEAALAALSLPPALARRVRSLLSVQTRAADLFDTAPSP	0.0142
HMEDAFLQRLISIIEANLSNVDFNVKMLAEQLNMSQPTLYRKVKQRSELSVIDMIRSIRILSLIHISEPTR	-1.07
HMEDDRLIQNLLLTAKNLVMDVGRMDESALAENEDTVRTAMLFALGYLYENRSNPDYHKLTLNLRSILFA	-0.38
HMEDEISLGAINVPRGSVIVTAGGARLVEGSDYTVDYYSGTVKILNKSLLDAGTPINVSLET	-0.0249
HMEDETAKVLRLLAENNGYLPYNDKSDPTDIYAFFGMSKKAFKMTTGNLYKQKKIQFTQTGIQLIE	-1.77
HMEDEVSSSAAYQALLEKGVSKTLARSWVIDYGEAYVLDKVDLTTSQAARGKIKSSTAGFLKAAIEEDFHN	-0.0992
HMEDGEALARAVASLPGKYREVLFLKYSHGYSVDEIALILSMSKENVKKTIQRARKKLEQLLESE	-1.3
HMEDGEVTVPDLRGLTIKEAGTILEKLGLHLSPVGTGLAVRQDVAPGSKVARDTTITVEFEPPDIQVLR	0.374
HMEDIKHVVANNIKKYRKEERLTLQQLSYLTGVSKTMLNQIETEKSSPSITILWRISSGLKIPLSKLISSP	-1.58
HMEDIPENIRYKFLLKELKENEHLNILDKENIARKLTEIDLPELEKELLENEILNSTIKDYLGIKLV	0.494
HMEDKFEYQGELKSLIEPTSFSELVSALNVRDTLQAIIDFAMREEDTSGYEELKVRQNDYIQEYLNSIGNF	-0.761
HMEDKFEYQGERKSLIYPTSFSELTEALGVRNMLQSIIDFATRDEDTSGYEEMKERQNEYIQEYL	-0.0262
HMEDKKQVLYELITDKSYRPLRFKELAVLLMVPKALRGELKQTLDELIKEGKITVDSSSRYRAA	0.599
HMEDLDKIISAYLDENPQIVSDYGKGNKKAVNSAIGFVMKSTGGKYSSSDIVDAVRSMIVSISV	-0.667
HMEDNYYENKINYLFGYLDEADKEISVNSILDFHLAHRTNPEFVFEPKKNTNPLIWKYLSNSNLLY	0.398
HMEDPLGDLIGRIAAATGRPVQDIVAEVHRVVTDHFDGNLRVEAAAVILARKYGVAFEDKLSALQRSV	0.0325
HMEDSAKRHQIMDGARRVFMDLGFDGASMNEIARAAGVSKGTLYVYFTDKNRLFEAIVEQESL	-1.27
HMEDSEYDRLLAEIDEGIRKAIETLEPVELSPQNARVRRIQHQIIEKYQLHSDSVGEEPYRRVRIL	-0.596
HMEDSHIYPVSFNGKMRFKLELPVSMNKKEIEEVVLQHEDAQKWLNGQNPKKVIVVPKRIINIV	0.0193
HMEDTVNVPIQINGKLRHVIQVQIGTSEEEIQKIALSEEQVKKFTDGHEILKVMVPKGKLVSIVI	-1.04
HMEDVLVTQIIQLKHVDANDMKTLFTPLLSRGSSQLLAYPQSNVLIITDTRSNIKKITEILDIIDKS	-3.02

Sequence	soluble fraction (log2)
HMEDVRSLTGPEKAAIILLSLGEEHGQGVWRMFDDEEVKEVSQIMANLGTISASVVEKLLVEFVSQMST	-0.96
HMEDYYKILGVQSNSNPDDIKKAYRKLSLKHHPDRGGDASEFKKINEAYQTLGTPEKRKMYDMQQNN	-0.169
HMEEEPALLRDLLAKTLEFGLIPQLSHHPALADRTQQLASAVRAAGSASALRNAAASLKSLWIDVDQ	-0.0158
HMEEFDLNAYITKINSAATLNALKQAYAEANSAALSVKDKDAQRKIIVEKDKRKAELIQETAG	0.453
HMEEIALTDILNRFLSSLSLEQRKIFMRRYWYLSPIKEIATEYGMSESKIKMSLFRSRNELKKLLEKEGI	-0.499
HMEEINTAPVFKNIIEIAEYAKTKFTTVEEIPKMIEFIETANSKLDNPHDEESVNELINALSTNIRKNV	0.347
HMEEITLIAEDEGLRLDTWLTDKLKDYSRSYIQKLMEDELVLVNGKARKANYRIKTGDEIHVSIPEPE	-0.0663
HMEELLVAVKADGSIWADGRPITPDGLASFIDSKPADAVLNLAVDKKAPFAAFVKVVDVAKEKKSGRFVIR	-0.41
HMEELPIIVAQRFLNIFRQLHIFSDERREAFNKMLLELPPEVKSIFQSLPGGTPLQEYMEDLEQKSK	-0.721
HMEELTPLQKYVFDYESDISDEVDMRAIKGLENANDVYDYYANVRGWEGDPDLEDDLDNIYRQVKARFA	0.0255
HMEEMTIRQKRTMIFFIEATKHILQEDGYDHLTIREIAQRAGYNAATLYHYFRDLDELIIYGSVG	-0.439
HMEEPEELYRVKILIYNLLVRNGPGILYTRLRRADYPGEYGIYEEKNGYGKISATLSEWISLNTEYVQRLD	-3.72
HMEEVYVPDIRDKSISDAKKILSQMGLKYRIEGEGYDDSTVIKDQTPKPGALLAKDSVVIAYINE	0.0833
HMEEYLENLTQSKLLHMLDQLSPAYKTVFTLFVLDELSHEEISKMLNISIGTSKSNLFRARKVMRVLMESE	-0.273
HMEFDIDAAIHAALEPQAVMRAWFGHEGREYPEDFGVVFFRGWESFTHQEKVEAVRDAKKVLDRAVR	-1.18
HMEFDSLINYEVKKKETLFSISKKFKIEINDLLSFNTELKNNKLKKNSIIIIPLKKKIVESQNFEKQKIID	-1.49
HMEFENIEQRKQYWSDLYRELKAGQDAYAKELKKGTEGYTQDELDILKEFTDEAKKQMEAAGVEATDEFAS	-0.0427
HMEFLLAIQPFVLLTDHANLTFLREQTDSMMKRIQINISGFEIEFRYVPGLTNILPDKMSRV	0.146
HMEFQEQLYRLRKQAGLSQEELSHIIGVSRQAVQKWEAGSARPDLDNLIALASHFKLSLDQLVGLT	-1.01
HMEFQSIGGKIRIGREREHLTQAELAQKLSVTRQAVSNWERDKTLPDIYMIREIAEIFGLTLDEFMEGAKK	-1.02
HMEGDAFAFTGDIQKDLLSITAVHPMRREAVDALIAKAGASWAIVEKLLAHGELTEAKHDGHLFYLRKF	-1.19
HMEGIAEILPASVRQKYGLIGLYDALRGLHFPGNMEEIKAARQRLAFEDTLMFSLTLSMMQYS	-0.146
HMEGIAYDINTAPEHIDLKAEDMMATFNIGKTALWRWVKQKILPPPYEYRSQAAHWTIGQIRDWKTA	-0.125
HMEGLDDKTKIILFAGDKKEQEYSLADLKSKLNITENLTESELIKLLEKQGYVLDVNANNEFMFKKD	-0.012
HMEGNFFADIRQELMRELDQEAEWSDVQILEKIDDLVLLRTRRSSLTVNEKEQLRKELFYSVRK	-0.345
